Like-named read-outs stand apart in the source and are kept apart here.
Legend:
[1] = target: T1, human OT-R (Homo sapiens, UniProt P30559); test: Activation of OT-R by bacterial peptides: calcium release from HEK cells transfected with human OT-R; type: cell-based; conditions: for specific activation of OTR: OTR expressing HEK cells; for Emax: mean ± standard error, maximal amplitude of Ca2+ release, HEK cells expressing human OT-R; for activation of the oxytocin receptor: statement in the description, micromolar scale
T1 construct: expressed in transfected cells; host or cells: HEK cells
T1 sequence (P30559 1-389): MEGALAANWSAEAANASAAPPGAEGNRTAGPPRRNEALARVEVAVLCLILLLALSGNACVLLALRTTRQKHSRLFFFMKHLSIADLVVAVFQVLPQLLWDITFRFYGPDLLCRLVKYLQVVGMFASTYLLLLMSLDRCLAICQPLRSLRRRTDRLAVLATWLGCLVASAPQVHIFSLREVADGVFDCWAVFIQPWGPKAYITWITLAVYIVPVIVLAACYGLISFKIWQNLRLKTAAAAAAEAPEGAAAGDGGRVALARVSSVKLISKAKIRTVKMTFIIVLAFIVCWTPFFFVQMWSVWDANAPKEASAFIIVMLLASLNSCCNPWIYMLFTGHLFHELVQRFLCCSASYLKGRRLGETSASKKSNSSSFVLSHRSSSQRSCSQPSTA

[2] = tested on: anti-oxytocin antibodies; test: Proteomic analysis: 2D gel and OT immunodetection (OT IgG) of bacterial proteomes; type: binding
Procedure: In this study, 14 bacteria-extracted proteomes were analyzed: (i) from 5 Bifidobacterium species grown in anaerobe conditions, (ii) from 5 Lactobacillus species grown in anaerobe culture conditions and (iii) from 4 aerotolerant Lactobacillus species grown in aerobe conditions. Each proteome analysis was performed in triplicate and was further separated in 3 fractions i.e. soluble (S), membrane (M), and residual (R) resulting in 9 samples/proteome). Each fraction was initially screened by western blot (WB) for the presence OT-like reactivity to validate it for further 2D-SDS-PAGE analysis. […] Finally, all fractions have been analyzed using 2D gel technique and OT immunodetection. 2D gel electrophoresis allowed to improve visibility of the less abundant proteins in a complex sample. Thereby, all samples were analyzed at least once with this method to scan optimally each proteome in the search for OT mimicry. […] The specificity for OT-like staining was controlled by pre-adsorption of OT-IgG with OT peptide.
All protein spots in silver nitrate staining gels corresponding to OT-like spots in the membrane were excised and analyzed by mass spectrometry

[3] = target: human oxytocin receptor (human, UniProt P30559); test: cell-based or functional assay
[4] = 2D-immunoblotting, spots identified by mass spectrometry

CSCC[C@H](NC(=O)[C@@H]1CCCN1C(=O)CNC(=O)[C@H](CC(N)=O)NC(=O)[C@H](Cc1c[nH]c2ccccc12)NC(=O)[C@@H](NC(=O)[C@@H](NC(=O)[C@@H](NC(=O)[C@@H](N)CCCCN)[C@@H](C)O)C(C)C)C(C)C)C(=O)NCC(=O)O [Peptide 3]
specific activation of OTR [1]: specifically activated OTR
Emax [1]: 302 ± 35.41
activation of the oxytocin receptor [1]: strongly activate the oxytocin receptor at a micromolar scale

CC[C@H](C)[C@H](NC(=O)[C@H](Cc1ccc(O)cc1)NC(=O)[C@@H](N)CC(=O)O)C(=O)N[C@@H](CCCCN)C(=O)N[C@@H](CC(N)=O)C(=O)N[C@@H](CCSC)C(=O)N[C@H](C(=O)N[C@H](C(=O)NCC(=O)O)[C@@H](C)O)[C@@H](C)CC [Peptide 8]
specific activation of OTR [1]: specifically activated OTR
Emax [1]: 140 ± 71.48
activation of the oxytocin receptor [1]: strongly activate the oxytocin receptor at a micromolar scale

Elongation factor Tu [SEQ ID NO:14]
immune cross-reaction with anti-oxytocin antibodies [2, 4]: immune cross-react with anti-oxytocin antibodies

Elongation factor Tu [SEQ ID NO:17]
immune cross-reaction with anti-oxytocin antibodies [2, 4]: immune cross-react with anti-oxytocin antibodies

Enolase 2 [SEQ ID NO:8]
immune cross-reaction with anti-oxytocin antibodies [2, 4]: immune cross-react with anti-oxytocin antibodies

Glucose-6-phosphate isomerase [SEQ ID NO:18]
immune cross-reaction with anti-oxytocin antibodies [2]: immune cross-react with anti-oxytocin antibodies

H-ATSKNCPIA-OH [Peptide 4]
specific activation of OTR [1]: specifically activated OTR
Emax [1]: 304.6 ± 29.70

H-DFVKNMITG-OH [Peptide 17]
Emax [1]: 135.3 ± 8.92

H-DYVKNMITG-OH [Peptide 1]
specific activation of OTR [1]: specifically activated OTR
most efficient OT-like peptides ([1]; judged by EC50 and maximal amplitude of Ca2+ release): most efficient
Emax [1]: 273.8 ± 35.03
activation of the oxytocin receptor [1]: strongly activate the oxytocin receptor at a micromolar scale

H-KFVNDNELG-OH [Peptide 2]
specific activation of OTR [1]: specifically activated OTR
Emax [1]: 164.8 ± 107.9
activation of the oxytocin receptor [1]: strongly activate the oxytocin receptor at a micromolar scale

H-KQFVHENELG-OH [Peptide 7]
specific activation of OTR [1]: specifically activated OTR
Emax [1]: 262.8 ± 35.64

H-KYIENISDE-OH [Peptide 14]
specific activation of OTR [1]: specifically activated OTR
Emax [1]: 221.5 ± 10.40

H-LTITNVPNS-OH [Peptide 5]
specific activation of OTR [1]: specifically activated OTR
Emax [1]: 272 ± 99.09

H-QYIQEGR-OH [Peptide 6, H-QYIQEGR-OH]
specific activation of OTR [1]: specifically activated OTR
Emax [1]: 99.42 ± 6.77
activation of the oxytocin receptor [1]: strongly activate the oxytocin receptor at a micromolar scale

H-SYFYNKEDG-OH [Peptide 10, LG]
activation of the oxytocin receptor [1]: strongly activate the oxytocin receptor at a micromolar scale

H-VDIQEFMIMPVG-OH [Peptide 9, Enolase 2 fragment 160-171; LG]
activation of the oxytocin receptor [1]: strongly activate the oxytocin receptor at a micromolar scale

B1: OT-like peptide #15, Probable phosphoketolase 40-49, H-IYLRSNPLMK-OH (peptide)
peptide: H-IYLRSNPLMK-OH
Emax of calcium release [3]: 5.36

B2: OT-like peptide #16, Elongation factor Tu 164-172, H-GFDRDCPVV-OH (peptide)
peptide: H-GFDRDCPVV-OH
Emax of calcium release [3]: 2.13

B3: OT-like peptide #6, Glucose-6-phosphate isomerase 313-319, H-QYIQEGR-OH (peptide)
peptide: H-QYIQEGR-OH
EC50 of calcium release [3]: 3.79 µM
Emax of calcium release [3]: 99.4

B4: Triosephosphate isomerase (protein, listed as Lactobacillus camelliae)
chain: MAGNWKMNKNPEETQAFLDGVKGKLPESSKVQTVIAAPAIDLTTLVAGAKGTPLQTAAENCYFEDAGAFTGETSPKALKDMGLDYVVIGHSERRGYFHETDQDINKKAKAILKNGLLPIICCGESLDQREAGQTNDWVASQVEAALAGISAADVKNSVIAYEPIWAIGTGKTASADQAQEVVAHIRSIVAKLYDAETADAVRILYGGSVKPANVKELMAKPDIDGGLVGGASMDPESFVALANYQD
modifications: Triosephosphate isomerase
notes: protein expressed by Lactobacillus camelliae
immune cross-reaction with anti-oxytocin antibodies [2, 4]: immune cross-react with anti-oxytocin antibodies

B5: OT-like peptide #13, Triosephosphate isomerase 61-68, H-CYFEDAGA-OH (peptide)
peptide: H-CYFEDAGA-OH
Emax of calcium release [3]: 17.9

B6: OT-like peptide #2, Glucose-6-phosphate isomerase 13-21, H-KFVNDNELG-OH (peptide)
peptide: H-KFVNDNELG-OH
EC50 of calcium release [3]: 3.21 µM
Emax of calcium release [3]: 165

B7: OT-like peptide #4, GMP synthase [glutamine-hydrolyzing] 154-162, H-ATSKNCPIA-OH (peptide)
peptide: H-ATSKNCPIA-OH
EC50 of calcium release [3]: 3.09 µM
Emax of calcium release [3]: 305

B8: OT-like peptide #14, 2,3-bisphosphoglycerate-dependent phosphoglycerate mutase 191-199, H-KYIENISDE-OH (peptide)
peptide: H-KYIENISDE-OH
EC50 of calcium release [3]: 8.93 µM
Emax of calcium release [3]: 222

B9: Fructose tagatose bisphosphate aldolase (protein, listed as Lactobacillus camelliae)
chain: MFQAARKGHYAIGAFNTNNLEWTRALLKGAQELNVPILIQTSMGAAKYMGGYKLCKALIELEAESMNITVPVVIHLDHGNFEAAKEAIAAGYNSVMFDGHDLPFDENLEKTKEIVKLAHAKGISVEAEVGSIGGEEDGVIGEGELASVEEAKTLAATGIDFMAAGIGNIHGKYPSNWKGLHFDRLQEIADAVDLPLVLHGGSGIPQDQVEKAISMGIAKLNINTECQLAFAKATREYILANKDQEGKGYDPRKLLAPGTQAITDTFKEISGWMGTRPVKMVPEEIK
modifications: Fructose tagatose bisphosphate aldolase
notes: as for B4
immune cross-reaction with anti-oxytocin antibodies [2, 4]: immune cross-react with anti-oxytocin antibodies

B10: OT-like peptide #7, Glucose-6-phosphate isomerase 12-21, H-KQFVHENELG-OH (peptide)
peptide: H-KQFVHENELG-OH
EC50 of calcium release [3]: 2.57 µM
Emax of calcium release [3]: 263

B11: 2,5-didehydrogluconate reductase (protein, listed as Lactobacillus camelliae)
chain: MAEISKMSDTYTLSNGVKIPIVGFGTWQTPDGDVAKHSVEVAIKDGYRHIDTAAMYRNEDSVGEGIKAGLAAAGLKRDDLFVTTKLNNNAHSFDLVQKAIDESLTKLGLDHVDLYLIHWPNPVSFRDSYPDSLKETWRGMEQVYKDGKARAIGISNFRQAHLDVIKADATVEPMVNQIFLNPSDLQPAVTKMNAENNILSEAYSPLGTGKLLGNEELAKVAAKYGKGVAQVLLRWSLQHGFLPLAKSVHDARIKENTELFDFTLSDEDMKTLDGMRGVAGLATDPDTTNF
modifications: 2,5-didehydrogluconate reductase
notes: as for B4
immune cross-reaction with anti-oxytocin antibodies [2, 4]: immune cross-react with anti-oxytocin antibodies

B12: 2,3-bisphosphoglycerate-dependent phosphoglycerate mutase (protein, listed as Lactobacillus camelliae)
chain: MAKLVLIRHGQSEWNLSNQFTGWVDVDLSEKGTEEAKEAGRRIKKAGLEFDQAYTSVLTRAIKTLHYALEESDQLWIPETKTWRLNERHYGALQGQNKAEAAKKWGDEQVHIWRRSYDTLPPLLSADDEGSAAKDRRYANLDPRIIPGGENLKVTLERVIPFWEDHIAPDLLDGKNVIIAAHGNSLRALTKYIENISDEDIINLEMTTGEPVVYTFNDKLEVTDKVKLSK
modifications: 2,3-bisphosphoglycerate-dependent phosphoglycerate mutase
notes: as for B4
immune cross-reaction with anti-oxytocin antibodies [2, 4]: immune cross-react with anti-oxytocin antibodies

B13: OT-like peptide #11, Fructose tagatose bisphosphate aldolase 1-8, H-MFQAARKG-OH (peptide)
peptide: H-MFQAARKG-OH
Emax of calcium release [3]: 4.65

B14: OT-like peptide #10, Enolase 246-254, H-SYFYNKEDG-OH (peptide)
peptide: H-SYFYNKEDG-OH
Emax of calcium release [3]: 41.6

B15: OT-like peptide #5, Glutamine-fructose-6-phosphate aminotransferase [isomerizing] 371-379, H-LTITNVPNS-OH (peptide)
peptide: H-LTITNVPNS-OH
EC50 of calcium release [3]: 2.7 µM
Emax of calcium release [3]: 272

B16: OT-like peptide #17, Elongation factor Tu 89-97, H-DFVKNMITG-OH (peptide)
peptide: H-DFVKNMITG-OH
EC50 of calcium release [3]: 7.52 µM
Emax of calcium release [3]: 135

B17: OT-like peptide #3, Phosphoglycerate kinase 317-326, H-KTVVWNGPMG-OH (peptide)
peptide: H-KTVVWNGPMG-OH
Emax of calcium release [3]: 302

B18: OT-like peptide #1, Elongation factor Tu 87-95, H-DYVKNMITG-OH (peptide)
peptide: H-DYVKNMITG-OH
EC50 of calcium release [3]: 2.77 µM
Emax of calcium release [3]: 274

B19: OT-like peptide #12, 2,5-didehydrogluconate reductase 202-210, H-AYSPLGTGK-OH (peptide)
peptide: H-AYSPLGTGK-OH
Emax of calcium release [3]: 5.25

B20: OT-like peptide #8, Elongation factor Tu 88-96, H-DYIKNMITG-OH (peptide)
peptide: H-DYIKNMITG-OH
Emax of calcium release [3]: 140

B21: OT-like peptide #9, Enolase 2 160-171, H-[…]-OH (peptide)
peptide: H-VDIQEFMIMPVG-OH
Emax of calcium release [3]: 119
